Publication PMC10540216, “Activity Guided Azide-methyllysine Photo-trapping for Substrate Profiling of Lysine Demethylases” (Journal of the American Chemical Society, 2023)

B1: SYYM_HUMAN (protein, UniProt Q9Y2Z4 17-477, looked up)
Tyrosine--tRNA ligase, …: TLNLSVLLPLGLRKAHSGAQGLLAAQKARGLFKDFFPETGTKIELPELFDRGTASFPQTIYCGFDPTADSLHVGHLLALLGLFHLQRAGHNVIALVGGATARLGDPSGRTKEREALETERVRANARALRLGLEALAANHQQLFTDGRSWGSFTVLDNSAWYQKQHLVDFLAAVGGHFRMGTLLSRQSVQLRLKSPEGMSLAEFFYQVLQAYDFYYLFQRYGCRVQLGGSDQLGNIMSGYEFINKLTGEDVFGITVPLITSTTGAKLGKSAGNAVWLNRDKTSPFELYQFFVRQPDDSVERYLKLFTFLPLPEIDHIMQLHVKEPERRGPQKRLAAEVTKLVHGREGLDSAKRCTQALYHSSIDALEVMSDQELKELFKEAPFSEFFLDPGTSVLDTCRKANAIPDGPRGYRMITEGGVSINHQQVTNPESVLIVGQHILKNGLSLLKIGKRNFYIIKWLQL
B2: CBS_HUMAN (protein, UniProt P35520 1-551, looked up)
Cystathionine beta-synthase: MPSETPQAEVGPTGCPHRSGPHSAKGSLEKGSPEDKEAKEPLWIRPDAPSRCTWQLGRPASESPHHHTAPAKSPKILPDILKKIGDTPMVRINKIGKKFGLKCELLAKCEFFNAGGSVKDRISLRMIEDAERDGTLKPGDTIIEPTSGNTGIGLALAAAVRGYRCIIVMPEKMSSEKVDVLRALGAEIVRTPTNARFDSPESHVGVAWRLKNEIPNSHILDQYRNASNPLAHYDTTADEILQQCDGKLDMLVASVGTGGTITGIARKLKEKCPGCRIIGVDPEGSILAEPEELNQTEQTTYEVEGIGYDFIPTVLDRTVVDKWFKSNDEEAFTFARMLIAQEGLLCGGSAGSTVAVAVKAAQELQEGQRCVVILPDSVRNYMTKFLSDRWMLQKGFLKEEDLTEKKPWWWHLRVQELGLSAPLTVLPTITCGHTIEILREKGFDQAPVVDEAGVILGMVTLGNMLSSLLAGKVQPSDQVGKVIYKQFKQIRLTDTLGRLSHILEMDHFALVVHEQIQYHSTGKSSQRQMVFGVVTAIDLLNFVAAQERDQK
B3: IDHP_HUMAN (protein, UniProt P48735 40-452, looked up)
Isocitrate dehydrogenase …: ADKRIKVAKPVVEMDGDEMTRIIWQFIKEKLILPHVDIQLKYFDLGLPNRDQTDDQVTIDSALATQKYSVAVKCATITPDEARVEEFKLKKMWKSPNGTIRNILGGTVFREPIICKNIPRLVPGWTKPITIGRHAHGDQYKATDFVADRAGTFKMVFTPKDGSGVKEWEVYNFPAGGVGMGMYNTDESISGFAHSCFQYAIQKKWPLYMSTKNTILKAYDGRFKDIFQEIFDKHYKTDFDKNKIWYEHRLIDDMVAQVLKSSGGFVWACKNYDGDVQSDILAQGFGSLGLMTSVLVCPDGKTIEAEAAHGTVTRHYREHQKGRPTSTNPIASIFAWTRGLEHRGKLDGNQDLIRFAQMLEKVCVETVESGAMTKDLAGCIHGLSNVKLNEHFLNTTDFLDTIKSNLDRALGRQ
B4: LYSC_HUMAN (protein, UniProt P61626 19-148, looked up)
Lysozyme C: KVFERCELARTLKRLGMDGYRGISLANWMCLAKWESGYNTRATNYNAGDRSTDYGIFQINSRYWCNDGKTPGAVNACHLSCSALLQDNIADAVACAKRVVRDPQGIRAWVAWRNRCQNRDVRQYVQGCGV
B5: TCPQ_HUMAN (protein, UniProt P50990 2-548, looked up)
T-complex protein 1 subunit …: ALHVPKAPGFAQMLKEGAKHFSGLEEAVYRNIQACKELAQTTRTAYGPNGMNKMVINHLEKLFVTNDAATILRELEVQHPAAKMIVMASHMQEQEVGDGTNFVLVFAGALLELAEELLRIGLSVSEVIEGYEIACRKAHEILPNLVCCSAKNLRDIDEVSSLLRTSIMSKQYGNEVFLAKLIAQACVSIFPDSGHFNVDNIRVCKILGSGISSSSVLHGMVFKKETEGDVTSVKDAKIAVYSCPFDGMITETKGTVLIKTAEELMNFSKGEENLMDAQVKAIADTGANVVVTGGKVADMALHYANKYNIMLVRLNSKWDLRRLCKTVGATALPRLTPPVLEEMGHCDSVYLSEVGDTQVVVFKHEKEDGAISTIVLRGSTDNLMDDIERAVDDGVNTFKVLTRDKRLVPGGGATEIELAKQITSYGETCPGLEQYAIKKFAEAFEAIPRALAENSGVKANEVISKLYAVHQEGNKNVGLDIEAEVPAVKDMLEAGILDTYLGKYWAIKLATNAAVTVLRVDQIIMAKPAGGPKPPSGKKDWDDDQND
B6: RAD50_HUMAN (protein, UniProt Q92878 1-1312, looked up)
DNA repair protein RAD50: MSRIEKMSILGVRSFGIEDKDKQIITFFSPLTILVGPNGAGKTTIIECLKYICTGDFPPGTKGNTFVHDPKVAQETDVRAQIRLQFRDVNGELIAVQRSMVCTQKSKKTEFKTLEGVITRTKHGEKVSLSSKCAEIDREMISSLGVSKAVLNNVIFCHQEDSNWPLSEGKALKQKFDEIFSATRYIKALETLRQVRQTQGQKVKEYQMELKYLKQYKEKACEIRDQITSKEAQLTSSKEIVKSYENELDPLKNRLKEIEHNLSKIMKLDNEIKALDSRKKQMEKDNSELEEKMEKVFQGTDEQLNDLYHNHQRTVREKERKLVDCHRELEKLNKESRLLNQEKSELLVEQGRLQLQADRHQEHIRARDSLIQSLATQLELDGFERGPFSERQIKNFHKLVRERQEGEAKTANQLMNDFAEKETLKQKQIDEIRDKKTGLGRIIELKSEILSKKQNELKNVKYELQQLEGSSDRILELDQELIKAERELSKAEKNSNVETLKMEVISLQNEKADLDRTLRKLDQEMEQLNHHTTTRTQMEMLTKDKADKDEQIRKIKSRHSDELTSLLGYFPNKKQLEDWLHSKSKEINQTRDRLAKLNKELASSEQNKNHINNELKRKEEQLSSYEDKLFDVCGSQDFESDLDRLKEEIEKSSKQRAMLAGATAVYSQFITQLTDENQSCCPVCQRVFQTEAELQEVISDLQSKLRLAPDKLKSTESELKKKEKRRDEMLGLVPMRQSIIDLKEKEIPELRNKLQNVNRDIQRLKNDIEEQETLLGTIMPEEESAKVCLTDVTIMERFQMELKDVERKIAQQAAKLQGIDLDRTVQQVNQEKQEKQHKLDTVSSKIELNRKLIQDQQEQIQHLKSTTNELKSEKLQISTNLQRRQQLEEQTVELSTEVQSLYREIKDAKEQVSPLETTLEKFQQEKEELINKKNTSNKIAQDKLNDIKEKVKNIHGYMKDIENYIQDGKDDYKKQKETELNKVIAQLSECEKHKEKINEDMRLMRQDIDTQKIQERWLQDNLTLRKRNEELKEVEEERKQHLKEMGQMQVLQMKSEHQKLEENIDNIKRNHNLALGRQKGYEEEIIHFKKELREPQFRDAEEKYREMMIVMRTTELVNKDLDIYYKTLDQAIMKFHSMKMEEINKIIRDLWRSTYRGQDIEYIEIRSDADENVSASDKRRNYNYRVVMLKGDTALDMRGRCSAGQKVLASLIIRLALAETFCLNCGIIALDEPTTNLDRENIESLAHALVEIIKSRSQQRNFQLLVITHDEDFVELLGRSEYVEKFYRIKKNIDQCSEIVKCSVSSLGFNVH
B7: GLYM_HUMAN (protein, UniProt P34897 30-504, looked up)
Serine …: NAAQTQTGEANRGWTGQESLSDSDPEMWELLQREKDRQCRGLELIASENFCSRAALEALGSCLNNKYSEGYPGKRYYGGAEVVDEIELLCQRRALEAFDLDPAQWGVNVQPYSGSPANLAVYTALLQPHDRIMGLDLPDGGHLTHGYMSDVKRISATSIFFESMPYKLNPKTGLIDYNQLALTARLFRPRLIIAGTSAYARLIDYARMREVCDEVKAHLLADMAHISGLVAAKVIPSPFKHADIVTTTTHKTLRGARSGLIFYRKGVKAVDPKTGREIPYTFEDRINFAVFPSLQGGPHNHAIAAVAVALKQACTPMFREYSLQVLKNARAMADALLERGYSLVSGGTDNHLVLVDLRPKGLDGARAERVLELVSITANKNTCPGDRSAITPGGLRLGAPALTSRQFREDDFRRVVDFIDEGVNIGLEVKSKTAKLQDFKSFLLKDSETSQRLANLRQRVEQFARAFPMPGFDEH
B8: MCCB_HUMAN (protein, UniProt Q9HCC0 23-563, looked up)
Methylcrotonoyl-CoA …: YHGDSVASLGTQPDLGSALYQENYKQMKALVNQLHERVEHIKLGGGEKARALHISRGKLLPRERIDNLIDPGSPFLELSQFAGYQLYDNEEVPGGGIITGIGRVSGVECMIIANDATVKGGAYYPVTVKKQLRAQEIAMQNRLPCIYLVDSGGAYLPRQADVFPDRDHFGRTFYNQAIMSSKNIAQIAVVMGSCTAGGAYVPAMADENIIVRKQGTIFLAGPPLVKAATGEEVSAEDLGGADLHCRKSGVSDHWALDDHHALHLTRKVVRNLNYQKKLDVTIEPSEEPLFPADELYGIVGANLKRSFDVREVIARIVDGSRFTEFKAFYGDTLVTGFARIFGYPVGIVGNNGVLFSESAKKGTHFVQLCCQRNIPLLFLQNITGFMVGREYEAEGIAKDGAKMVAAVACAQVPKITLIIGGSYGAGNYGMCGRAYSPRFLYIWPNARISVMGGEQAANVLATITKDQRAREGKQFSSADEAALKEPIIKKFEEEGNPYYSSARVWDDGIIDPADTRLVLGLSFSAALNAPIEKTDFGIFRM
B9: TPP1_HUMAN (protein, UniProt O14773 196-563, looked up)
Tripeptidyl-peptidase 1: LHLGVTPSVIRKRYNLTSQDVGSGTSNNSQACAQFLEQYFHDSDLAQFMRLFGGNFAHQASVARVVGQQGRGRAGIEASLDVQYLMSAGANISTWVYSSPGRHEGQEPFLQWLMLLSNESALPHVHTVSYGDDEDSLSSAYIQRVNTELMKAAARGLTLLFASGDSGAGCWSVSGRHQFRPTFPASSPYVTTVGGTSFQEPFLITNEIVDYISGGGFSNVFPRPSYQEEAVTKFLSSSPHLPPSSYFNASGRAYPDVAALSDGYWVVSNRVPIPWVSGTSASTPVFGGILSLINEHRILSGRPPLGFLNPRLYQQHGAGLFDVTRGCHESCLDEEVEGQGFCSGPGWDPVTGWGTPNFPALLKTLLNP
B10: PUR8_HUMAN (protein, UniProt P30566 2-484, looked up)
Adenylosuccinate lyase: AAGGDHGSPDSYRSPLASRYASPEMCFVFSDRYKFRTWRQLWLWLAEAEQTLGLPITDEQIQEMKSNLENIDFKMAAEEEKRLRHDVMAHVHTFGHCCPKAAGIIHLGATSCYVGDNTDLIILRNALDLLLPKLARVISRLADFAKERASLPTLGFTHFQPAQLTTVGKRCCLWIQDLCMDLQNLKRVRDDLRFRGVKGTTGTQASFLQLFEGDDHKVEQLDKMVTEKAGFKRAFIITGQTYTRKVDIEVLSVLASLGASVHKICTDIRLLANLKEMEEPFEKQQIGSSAMPYKRNPMRSERCCSLARHLMTLVMDPLQTASVQWFERTLDDSANRRICLAEAFLTADTILNTLQNISEGLVVYPKVIERRIRQELPFMATENIIMAMVKAGGSRQDCHEKIRVLSQQAASVVKQEGGDNDLIERIQVDAYFSPIHSQLDHLLDPSSFTGRASQQVQRFLEEEVYPLLKPYESVMKVKAELCL

Test system: KDM4A-I71AzF
Assay: CASI: photo-crosslinking with HEK293T cell extracts, StrepTactin enrichment and LC-MS/MS proteomics;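 note: lysates from HEK293T cells pretreated with a KDM4 inhibitor to raise proteome methylation, affinity-purified after ±UV, gel-resolved, trypsin-digested, with exclusive unique peptides per protein averaged per condition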
Assay type: binding, human
Conditions: sheet "Final results but with 0.01"

Molecule	Fold change (+UV/-UV)
B1	2
B2	1.4
B3	0.4
B4	200
B5	1
B6	200
B7	0.3333
B8	0.9333
B9	0
B10	0.3333
